# Measured values taken from a protein production outcome set (Wang et al. 2014).
# Experiment: label from the status in PepcDB records
row,Sequence,protein production
1,GRGTVTNEVRVAVEVPALPAAIASRLEVPAGAGGVYVERLRRLDGLPLSLDTSYLTVDVGRAVLAGDLRDRDVFGLIEEAAGARLGRAEVAVHAVNADPGTARLLGIGPGAAVFALERLTRLADGRPVDAESIRIRADRMA,failed
2,MTMTLSAKDLENISKLAYLNEDSEHSAKLTQEVSAIMDFVDQLKTIDTSQIAPLFHPLALNQRLRPDEVTEAECLAELEAMAPLFEDNLYLVPKVISSDK,failed
3,LERAKLVSIDRVIDDLSRNIDIEEVSQALAGQVIIDIRHPDAQEDQPLQVPGVEIQTLPFYALNSRFKALDDTRQYLLYCDKGVMSRLHAHHLLSEGHANVRVY,failed
4,PLPEGMQQQFEDTISRDAKQQPTWDRAQAENVRKILESVPPIVVAPEVLELKQKLADVANGKAFLLQGGDCAETFESNTEPHIRANVKTLLQMAVVLTYGASTPVIKMARIAGQYAKPRSSDLDGNGLPNYRGDIVNGVEATPEARRHDPARMIRAYANASAAMNLVRALTSSGTADLYRLSEWNREFVANSPAGARYEALAREIDSGLRFMEACGVSDESLRAADIYCSHEALLVDYERSMLRLATDEEGNEELYDLSAHQLWIGERTRGMDDFHVNFASMISNPIGIKIGPGITPEEAVAYADKLDPNFEPGRLTIVARMGHDKVRSVLPGVIQAVEASGHKVIWQSDPMHGNTFTASNGYKTRHFDKVIDEVQGFFEVHRALGTHPGGIHIEFTGEDVTECLGGAEDITDVDLPGRYESACDPRLNTQQSLELAFLVAEMLRN,failed
5,MLNKVNLADIRSFVLIAQLGNFTKAAEALSVSRSHVSRQISGLEAQMGVTLLNRTTRTLRLTHAGERFYHDCEKALRDIDQALIAAVDDTQEIRGVIRVNCVGGYIGEDIIAKYVCEFMQQYPNVSIDLDFSSPRIDLIEDQFDVAFRMGELDDAGFVARKLMTVDMVTLASPSYVQQYGMPIHPKELAEHRTLTGSVARWSYRKADNPNDHTDVVVKGNLRCKNGRALVMGALHGNGIIRVPLSYCAEEVELGQLIKVMPNWEIPSVPFSAIFHRDRYQPKRLRTFIDFIKQKFEDS,failed
6,MVTPSLRLVFVKGPREGDALDYKPGSTIRVGRIVRGNEIAIKDAGISTKHLRIESDSGNWVIQDLGSSNGTLLNSNALDPETSVNLGDGDVIKLGEYTSILVNFV,not failed
7,MIKTHYAKLALSAFAVSILASCANLGMTGVADGNNSEQTYLGQINYQDQTITKASAKKLNREIDLQRASQLTLWAMPMVGMYQSYNSTIALFDLQEGDAPIIGLHEGYDGVYPFLTANVTTPYTISLVDLSETGPYVVNIPAGSIFGVANNAWQEPIKEIGSGNKETLLFVGPGQEYPKDFDGEVIQSDTNQILYFYRVLGVGAEAEKLKTAVTAYKLSDVANPPQVKFVIYKPKASDADVTIATQPRGMAYWEVVNQYIQNEPMADRDRFFYAWLKDLGIEKGKAFNPTPYQKEILLEGVNTGMAMAQSLAFNKTKKKFSSSLYGSDSGWEGVLAGMDPKIDLDTYSMINERTAYTYEAVTTSAGMIVENPGHGSAYIGSYYDADGNALMGGKNYTLHIEPNPPAANFWSITVYDIKNRLIIRNEIKRSDLSSRSESLVMNSDGSVDLYFGPEAPEGKEGNWIQSNDGESYFMYLRLYGPEQEYFDQTYPMNKIDKTK,failed
8,MTAMSPEQSRAIAKKLAFWATLACLLAVVVIMLGAWTRLVHAGLGCPDWPGCYGFLTVPQDETRIAIANARFPETPVDVSKGWPEMIHRYAAGTLGLLVFGLAIASVRKRRAGLPVKLPLFIAGFIVLQAAFGMWTVTLKLWPQVVALHLLGGFTTLSLLLLLTLRLRRRARESEAPRPAMAASLARLRPWLYGGLLLVIAQIALGAWTAANYAAVACTDLPTCQGQWWPEGMDFQHGFDITQHVGPNYLGGQLTSDGRVAIHVSHRLGAVLVLGYLAILLGLLWRQRAQSGLDRAIALVGGALVLQFCLGLTNVWLHIPLIIAVAHNAMGAGLLLSMVHLIWRHHQLALPALSPAPHTTTINREVTA,failed
9,EDYEKVPLPNSVFVNTTESCEVERLFKATSPRGEPQDGLYCIRNSSTKSGKVLVVWDETSNKVRNYRIFEKDSKFYLEGEVLFVSVGSMVEHYHTHVLPSHQSLLLRHPYGYT,not failed
10,MEAVTGYVKRKDLGRAVVQTDLGNPKAWEIRLTILTDEVLSENQKLATQKIDPSCAVDVSIGHGASDSPRGSSLAINEVRCECSSGISESDLETRGLAMIIDFVMRVASLERSVMNKRDLRFARVEKRFPKGKTKLKA,failed
11,MQLYYLGPKGTFSYLACRQYFSENEATFQPKSNLFEVIKAVADDDTSIGVVPIENSIEGTINIVADALAQQDVFAHGEIRLDINFALYGNGTDSISDIKKVYSIAPAISQTTNYIHQHQFDYDYVDSTIQSLTKIENGVAAIAPLGSGEAYGFTPIDTHIEDYPHNVTRFLVIKNQQQFDQNATSLMFLITPMHDKPGLLASVLNTFALFNINLSWIESRPLKTQLGMYRFFVQADSAITTDIKKVIAILETLDFKVEMIGAFN,not failed
12,MSKKRIIALILAVVIVLGGIIMSSISAVVSSLFSESTTSDTNPFTEKVEKEGNSSKRIAHLTLNGEITEGTGGGLFGGEGYNHEAFLKQLDNVKKDDSIKGVLLTVNTPGGGTYPSDEIYEKIKEIKQKHKKIYVHMDSMAASGGYYISAPADKIYAGPQTMTGSIGVIMSSIDYSGLQKNLGIKQNVIKSGEHKDILSSSREMTSEERDILQSVLDDSFNRFVNIVKDGRDMPESKVRKLADGRIYSAQQAKSNGLIDEIGYEDQTVKALKKDINAKDAEVFEYSTDGGWFSSMYNVKSSISQFTNEIKDVKSIITNDTKTEPMYLYEGLEHHHHHH,failed
13,MKSVAGGLLRIGMRHDHDMTNRRLDAVILAGGCAHRLGGVAKANLRVGTRRLLDVVLDAVDGAREGLEGSNVVVARESVEVPWSVIRTMEDPPGSGPLAGIRAGLQALPPAQPDDLVLVCAVDSPGIGRSIRQLREALEDDPLNHFAGAVTFGGVPKPHRQLLQGLYRRVPLEASIAAADTVVNRSVHSVLGGLCLLDLPVEPEACRDLDTPGDVEWWLRHIGD,failed
14,MNDALHIGLPPFLVQANNEPRVLAAPEARMGYVLELVRANIAADGGPFAAAVFERDSGLLIAAGTNRVVPGRCSAAHAEILALSLAQAKLDTHDLSADGLPACELVTSAEPCVMCFGAVIWSGVRSLVCAARSDDVEAIGFDEGPRPENWMGGLEARGITVTTGLLRDAACALLREYNACNGVIYNARCGVHK,not failed
15,GFAATALPVLQRVTDRTHEATILSVRDGNHHLTVNKVDGPKTFRVTSDPGHLGALHTTSVGKALVAFEEEVERKRLLEELPLDPLTEHSITDRDKFRAEIDQVRRQGYAVMDEENEIGMRAVAVPVLNSQGHAFASLAVAVPVFRLTMEELIAHVPTLQEAAAELAARLPQ,failed
16,MLDNRPIGVFDSGIGGLTIVKNLMSILPNEDIIYFGDIARIPYGTKSRATIQKFAAQTAKFLIDQEVKAIIIACNTISAIAKDIVQEIAKAIPVIDVITAGVSLVDNLNTVGVIATPATINSNAYALQIHKKNPNIEVYSNPCGLFVSMIEEGFVSGHIVELVAKEYLSYFHDKNIQALILGCTHYPIIKESIAKILDVKLIDPSLQASKMLYSLLFENKLLNTTKSNPEYRFYVTDIPLKFRSVGEMFLQTEMQHLEIVSLDSY,not failed
17,MMNYNTPKVSIVVPSLNSISYIRECIDSILNQTLKDIEILCIDANSTDGTLEVLKNYEKKDKRLRVIISDKKSYGYQMNLGIKEAKGEYLGIVESDDYIKTNMYERLYEIAKKNDCEVVKGDFYIFAYGKTEYVNVLRNSCEDIYNYKVNWNKDIRIFLGSDGINPIGIYRLDLLRTNQIKLNETPGASYQDNGLWFQIFALAKSIYFINEAFYMLRRDNPNSSVKSKEKVYCACEEYDFIRDFLKKHPDLEKTLAPICALHRFGNYMFTLERIDERYKLDFLKRFSQDFRKILKDKELDENLFGNINMQRINKIIENPVIYYYFSRGARARLQNQLVYRLGKVVVEAKSFNKIIKLPFLMLKICLEHNFEHKVYRSIVQFRPDLKLLPLECYLDYHEALVIKEHLSYKFGKLILLSFKGWYKGKIFILPFMLKKRYKEYKNKMILEHHHHHH,failed
18,MIGVITSLTGGAILRNPAVLLIPLIYLVGRRSRDLTYLLFVMYTIITFQFVEVKELISYETIKTTLMAIIPSLLALKESIEGKKLQKTDLYYLPLFFLGVLRDYFYYLGLIIAGLLHIENFHSILIPAAVFSLIISPALVGELIELPGEYISIIMAGSLLVIYLVFQPTRR,failed
19,MGLLVVKAQRQLRKIDNSKVFQGVVIAVILLSALLIGAKTHNLSSNVVAILLLMDVAVTVFFAIEISIRYLACPQKKNFFKSGWNIFDTVIVIGSLVPSGGSGVLLARLLRVFRVLRLVSMVPELRLLINALLKAIPRMGYIALLMFVIFYIYAAIGSMYFHSINEVLWGDVSISMLTLFRVATFEDWTDVMYETMAVHPLSWIYYLTFIFLTAFIFLNMMVGTVLEVMSQEHEQFRAEQHGESGDGGEPASRAQIDKLESEIAEIKALLLAKT,failed
20,MKREAEGGFQNRYLSNCPGSSRLRVWVPIVEASPGRRPYPFRCQPCNFRLGGRAVGGLAAAQPGGRPRWRRAARRAARAPAPPWLPLPSSPRSNPLTRLLPWFKSIDLNKPIDKRIYKGTQPTCHDFNQFTAATETISLLVGFSAGQVQYLDLIKKDTSKLFNEERLIDKTKVTYLKWLPESESLFLASHASGHLYLYNVSHPCASTPPQYSLLKQGEGFAVYAAKSKAPRNPLAKWAVGEGPLNEFAFSPDGRHLACVSQDGCLRVFHFDSMLLRGLMKSYFGGLLCVCWSPDGRYVVTGGEDDLVTVWSFTEGRVVARGHGHKSWVNAVAFDPYTTRAEETASASGDGDPSGEEEEPEATSSDTGAPVSPLPKAGSVTYRFGSAGQDTQFCLWDLTEDVLSPHPPLARTRTLPGTPGATPPASGGSRAGETGAGPLPRSLSRSNSLPHPAGGGKAGGPSVSMEPGVPFSIGRFATLTLQERRDRGAEKEHKRYHSLGNISRGGSGGNSSNDKLNGPAPRSRLDPAKVLGTALCPRIHEVPLLEPLVCKKIAQERLTVLLFLEDCIITACQEGLVCTWARPGKAFTDEETETQAGEASWPRSPSKSVVEGISSQPGSSPSGTVV,failed
21,FIFFNQPKTPEESIQLLGAQAGDTESFRVTLDRIPPQIQKLSFTATLDGAGQMSQVAPGYLRIVAGGEEVARYSFTGSEFSTERAVMLGDFYLKDVWRFAAVGQGFDGGLDALL,failed
22,MSSCCAAEAKNASERKLLWIVLILNFSMFVIEFIAGWLANSSGLLADSLDMLADAAVYSLSLYAVGKSLLYKGRAALANGYLQLSLGLLVLVDVARRIWLGSEPQSELMLSIGFMALIVNMICFVLLYQFRQGDVNLKASWICSRNDMLANIGIIISAVLVGQFDAAWPDWVIGSVIAGIVIHSSLAIINEAKVSIQSDAVADKNRT,failed
23,MKNPVPRIIKTPVIAMYHDDRREELTIEVELSDVKDENITLMMHENSFYIKAFSETVEYLGSFFLDGPVDPEKAVAANNNGMLTIKVPYKEGFTCARFIHVD,failed
